Experimental data: patent US20120196804A1
Like-named read-outs stand apart in the source and are kept apart here.

How the values were obtained:
Assay in all cases: cell-based or functional assay
GLP-1 receptor [1] = molecular target: GLP-1 receptor
glucagon receptor = molecular target: glucagon receptor
GLP-1 receptor [2] = molecular target: GLP-1 receptor; remark: listed apart in the source

cAMP Induction, EC50 (luciferase reporter, HEK293) (GLP-1 receptor [1]): 0.05 nM
cAMP Induction, EC50 (luciferase reporter, HEK293) (glucagon receptor): > 1000 nM
cAMP Induction, EC50 (luciferase reporter, HEK293) (GLP-1 receptor [2]): 0.04 nM
Substance: GLP-1 (peptide)
